What was measured:
[1] = target: OsttaDSP, dual specific phosphatase from Ostreococcus tauri, mature protein lacking the chloroplast transit peptide (Ostreococcus tauri); assay: SEC; HiPrep Sephacryl S-300 High-Resolution column, calibrated with a molecular weight kit; affinity-purified mature OsttaDSP, single peak of an estimated 54.4 kDa
purified protein = substrate: O=[N+]([O-])c1ccc(OP(=O)(O)O)cc1; assay: purified protein; type: biochemical, Ostreococcus tauri; details: pH 7, 37 °C, 2 mM DTT, hyperbolic saturation

| stoichiometry N [1] | Molecule | K0.5 (purified protein) [mM] |
| --- | --- | --- |
| 2 | OsttaDSP, dual specific phosphatase from Ostreococcus tauri, mature protein lacking the chloroplast transit peptide (enzyme) |  |
|  | OsttaDSP (Ostreococcus tauri) (protein, mature protein lacking the first 26 residues (predicted chloroplast transit peptide), 245 residues, N-terminal His6 tag kept, synthetic gene, pRSFDuet-1, E. coli BL21(DE3) pLys; homodimer) ATTTTRRGLADDDAYNAAMRAYSASPYEYKHDIGLYYHRIKPFLIVGTQPQTPADVDRLRETEGVTCVFNTQQEKDWKYWNVDYDSVRARAIETGMRHVRYPFEDFSADSLREGLPSAAAMLDAEIERGETVYLHCTAGMGRSPGLAIAYMYWFLDAYNTLDGAYEGLTSIRPCGPKKESIRGATCDLLAAIESDGKVEPLKRELEENEGVVLSIVSKERIQRAVRAMLLSTSDETVAKPWWKVW | 22.7 ± 3.4 |
